Results: patent US20250313626A1 (HARBOUR BIOMED SHANGHAI, published 2025)
Residue numbers refer to the chain shown, from its start.

T1: Cynomolgus macaques CD200R1 isoform a on CHOK1 cells (CHOK1/cynoCD200R1a) (Cynomolgus macaques)
T1 chain: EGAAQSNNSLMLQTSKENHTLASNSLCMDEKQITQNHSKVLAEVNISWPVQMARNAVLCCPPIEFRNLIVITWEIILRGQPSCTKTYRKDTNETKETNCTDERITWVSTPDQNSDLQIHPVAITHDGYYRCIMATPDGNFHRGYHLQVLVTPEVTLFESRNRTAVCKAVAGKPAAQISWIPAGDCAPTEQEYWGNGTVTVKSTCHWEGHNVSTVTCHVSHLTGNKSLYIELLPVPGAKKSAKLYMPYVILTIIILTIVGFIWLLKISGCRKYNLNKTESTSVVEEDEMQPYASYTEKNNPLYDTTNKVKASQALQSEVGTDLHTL

T2: human CD200R1 isoform a on CHOK1 cells (CHOK1/hCD200R1a) (human, UniProt Q8TD46 25-348)
T2 construct: also called CHOK1/CD200R1a
T2 sequence: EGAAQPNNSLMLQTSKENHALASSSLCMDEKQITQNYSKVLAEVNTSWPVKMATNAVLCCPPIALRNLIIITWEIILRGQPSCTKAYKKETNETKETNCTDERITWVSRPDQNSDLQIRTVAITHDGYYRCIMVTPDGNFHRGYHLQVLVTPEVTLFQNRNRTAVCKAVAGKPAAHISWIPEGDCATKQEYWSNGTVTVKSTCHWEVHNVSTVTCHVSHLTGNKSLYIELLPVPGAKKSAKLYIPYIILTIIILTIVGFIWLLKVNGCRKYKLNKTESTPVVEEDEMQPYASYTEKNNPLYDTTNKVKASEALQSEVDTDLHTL

T3: human CD200R1a protein (soluble recombinant) (human, UniProt Q8TD46 29-265)
T3 construct: Soluble protein used in BLI; also called human CD200R1 isoform a; not shown: His tag implied by capture on anti-Penta-HIS biosensors
T3 sequence: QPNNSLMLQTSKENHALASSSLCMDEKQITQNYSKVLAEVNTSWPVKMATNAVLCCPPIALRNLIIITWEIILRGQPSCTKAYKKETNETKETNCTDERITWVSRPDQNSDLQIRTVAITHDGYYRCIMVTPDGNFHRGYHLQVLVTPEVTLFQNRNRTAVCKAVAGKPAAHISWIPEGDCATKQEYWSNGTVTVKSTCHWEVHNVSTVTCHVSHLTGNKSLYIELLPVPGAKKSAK

B1: PR005474 (antibody, human IgG1, kappa, L234A L235A, V domains shown)
VH: QVQLVESGGGVVQPGRSLRLSCAASAFTFSSYGMHWVRQAPGKGLEWVALIWNDGSNKFYADSVKGRFTISRDNSKNTLFLQMNSLRAEDTAVYYCARDRILGAGFDYWGQGTLVTVSS
VL: not shown
B2: PR002906 (antibody, V domains shown)
VH: QVQLQESGPGLVKPSETLSLTCTVSGYTITSGYDWSWIRQPPGKGLEWIGYINYGGSTNYKPSLGSRVTISVDTSKNQFSLKLSSVTAADTAVYYCARYNEYKSYIYDWYFDFWGQGTLVTVSS
VL: DIQMTQSPSSLSASVGDRVTITCKASKNIRSYLAWYQQKPGKAPKLLIYSGSTLHSGVPSRFSGSGSGTDFTLTISSLQPEDFATYYCQQHHEYPLTFGQGTKVEIKR
notes: also called recombinant IgG1 antibody of huDX182
B3: PR006480 (antibody, human IgG1, kappa, L234A L235A)
heavy: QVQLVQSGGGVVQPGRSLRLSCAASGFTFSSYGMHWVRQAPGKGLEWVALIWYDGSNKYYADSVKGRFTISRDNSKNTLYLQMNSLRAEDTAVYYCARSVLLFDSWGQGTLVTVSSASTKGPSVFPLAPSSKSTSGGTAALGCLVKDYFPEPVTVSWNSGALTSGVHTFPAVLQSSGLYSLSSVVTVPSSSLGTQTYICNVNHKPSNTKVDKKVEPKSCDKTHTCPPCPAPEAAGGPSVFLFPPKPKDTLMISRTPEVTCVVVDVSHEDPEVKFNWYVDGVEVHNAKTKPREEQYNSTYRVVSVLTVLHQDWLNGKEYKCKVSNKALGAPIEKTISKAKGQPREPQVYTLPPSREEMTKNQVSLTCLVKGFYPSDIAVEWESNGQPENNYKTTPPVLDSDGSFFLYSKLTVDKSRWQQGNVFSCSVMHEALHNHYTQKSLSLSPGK
light: DIQMTQSPPSLSASVGDRVTITCRASQSISSYLNWFQQKAGKAPKLLISATSNLQSGVPSRFSGSGSGTDFTLTISSLQPEDLATYYCQQSYSSPYTFGQGTKVEIKRTVAAPSVFIFPPSDEQLKSGTASVVCLLNNFYPREAKVQWKVDNALQSGNSQESVTEQDSKDSTYSLSSTLTLSKADYEKHKVYACEVTHQGLSSPVTKSFNRGEC
notes: also called PR6480
B4: PR005509 (antibody, human IgG1, kappa, L234A L235A, V domains shown)
VH: B1 VH with A26G, M34F, V48L, A49G, N53S, F59Y, F80Y, L102V
VL: not shown
B5: PR007973 (antibody, human IgG1, kappa, V domains shown)
VH: QVQLVESGGGVVQPGRSLRLSCAASGFTFSSYGFHWVRQAPGKGLEWLGIIWSDASNKYYADSVKGRFTISRDNSKNTLYLQMNSLRAEDTAVYYCARDRIVGEGFDYWGQGTLVTVSS
VL: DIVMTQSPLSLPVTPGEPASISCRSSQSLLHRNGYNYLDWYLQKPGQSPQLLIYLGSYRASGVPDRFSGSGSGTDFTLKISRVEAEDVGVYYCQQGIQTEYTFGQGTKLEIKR
notes: PTM variant of PR006839 (human IgG1)
B6: PR007221 (antibody, human IgG1, kappa)
heavy: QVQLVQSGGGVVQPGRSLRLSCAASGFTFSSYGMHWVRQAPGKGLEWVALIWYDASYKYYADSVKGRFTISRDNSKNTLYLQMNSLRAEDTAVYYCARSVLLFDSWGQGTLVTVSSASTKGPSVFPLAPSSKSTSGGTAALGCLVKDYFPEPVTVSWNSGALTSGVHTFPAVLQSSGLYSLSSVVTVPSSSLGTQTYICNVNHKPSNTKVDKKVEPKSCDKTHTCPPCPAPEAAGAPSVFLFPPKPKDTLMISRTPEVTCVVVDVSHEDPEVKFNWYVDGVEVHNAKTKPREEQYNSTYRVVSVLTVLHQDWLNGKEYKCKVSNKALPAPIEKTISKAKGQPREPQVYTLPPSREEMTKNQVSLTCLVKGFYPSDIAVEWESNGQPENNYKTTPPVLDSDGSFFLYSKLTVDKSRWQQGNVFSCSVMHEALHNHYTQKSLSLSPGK
light: B3 light with M4L, S91T, Y92L
notes: PTM variant of PR006895 (human IgG1)
B7: PR007223 (antibody, human IgG1, kappa)
heavy: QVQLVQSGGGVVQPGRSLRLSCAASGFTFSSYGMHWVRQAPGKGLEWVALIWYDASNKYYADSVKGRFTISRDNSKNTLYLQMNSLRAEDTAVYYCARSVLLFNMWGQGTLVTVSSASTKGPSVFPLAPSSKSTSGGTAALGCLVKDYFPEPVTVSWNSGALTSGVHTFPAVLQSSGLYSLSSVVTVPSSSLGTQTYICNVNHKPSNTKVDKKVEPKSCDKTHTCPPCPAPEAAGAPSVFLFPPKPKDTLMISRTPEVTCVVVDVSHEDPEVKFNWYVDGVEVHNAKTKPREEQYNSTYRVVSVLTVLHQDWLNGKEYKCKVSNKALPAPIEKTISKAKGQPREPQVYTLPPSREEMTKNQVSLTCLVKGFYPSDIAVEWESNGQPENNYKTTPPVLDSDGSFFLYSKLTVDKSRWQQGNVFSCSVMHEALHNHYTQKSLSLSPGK
light: B3 light with M4L, S91T
notes: as for B6

Target: T1, Cynomolgus macaques CD200R1 isoform a …
Test: flow cytometry, CHOK1/cynoCD200R1a cells; table beside the curves, head without unit, x axis Log [Ab] (nM)
Experimental: This example is intended to investigate the in vitro binding activity of human anti-CD200R1 monoclonal antibodies to human/Cynomolgus macaques CD200R1a expressed on the surface of cells. The anti-CD200R1 antibodies were produced as described in Example 3.4 and the binding experiments at the cell level were performed using CHOK1/hCD200R1a and CHOK1-cynoCD200R1a.
Briefly, CHOK1/hCD200R1a cells and CHOK1-cynoCD200R1a cells were digested, and collected, and then were resuspended in PBS containing 2% BSA, respectively. The cell density was adjusted to 1×10⁶ cells/mL. The cells were seeded in a 96-well V-bottom plate (Corning, #3894) at 100 μL/well, followed by the addition of test antibodies and reference antibodies in a series diluted concentration, each at 100 μL/well. The cells were incubated away from light at 4° C. for 1 h. Thereafter, the cells in each well were rinsed twice with 100 μL of pre-cooled PBS containing 2% BSA, and centrifuged at 500 g at 4° C. for 5 min, and then the supernatant was discarded. 100 μL of fluorescent secondary antibody (Alexa Fluor 488-conjugated AffiniPure Goat Anti-Human IgG, Fcγ Fragment Specific, Jackson, #109-545-098, diluted in a 1:1000 ratio) was added in each well, and the plate was incubated away from light at 4° C. for 1 h. The cells in each well were rinsed twice with 100 μL of pre-cooled PBS containing 2% BSA, and centrifuged at 500 g at 4° C. for 5 min, and then the supernatant was discarded. Finally, the cells in each well were resuspended in 200 μL of pre-cooled PBS containing 2% BSA, and the fluorescence signal values were read using a BD CantoII flow cytometer.

First: B1
Second: B2
The EC50 of the first is 6.2-fold lower: 3.34 nM for the first, 20.8 nM for the second.

B3 showed an EC50 of 2.98 nM.

target: T2, human CD200R1 isoform a on CHOK1 cells …; test: flow cytometry blocking assay: antibody titrated against biotin-labelled human CD200 binding to CHOK1/hCD200R1a cells
Experimental: To study the activity of human anti-CD200R1 antibodies in blocking the binding of human CD200 to its receptor CD200R1a in vitro, CHOK1/hCD200R1a was used to perform cell-level human CD200/human CD200R1a binding and blocking experiments.
In brief, CHOK1/hCD200R1a cells were digested and resuspended in 2% BSA in PBS. […] The cells were placed at 4° C. and incubated for 1 hour in the dark. […] 100 μL/well of pre-cooled PBS containing 2% BSA was added to rinse the cells twice, centrifugation was performed at 500 g, 4° C. for 5 minutes, and the supernatant was discarded. Fluorescent secondary antibody (PE Streptavidin, BD, Cat #: 554061, 1:200) was added at 100 μL/well, and incubation was performed at 4° C. for 30 minutes in the dark. The cells were washed twice with 200 μL/well of pre-cooled PBS, and were centrifuged at 500 g, 4° C. for 5 minutes, and the supernatant was discarded. Finally, 200 μL/well of pre-cooled PBS was used to resuspend the cells, and the fluorescence signal values were read using ACEA Novocyte 3000 flow cytometer. IC50 values were calculated.

Compared with B4, B1 is lower in “Blocking (Max %)” value: 102% for the first, 101% for the second.

Going from B2 to B3, the “Blocking (Max %)” value falls from 98.3% to 63.3%.

First: B4
Second: B1
The IC50 of the first is 1.6-fold higher: 0.485 nM for the first, 0.309 nM for the second.

First: B2
Second: B3
The IC50 of the first is 2.6-fold higher: 1.58 nM for the first, 0.607 nM for the second. The second is the more potent here.

target: T3, human CD200R1a protein (soluble …); test: BLI in-tandem competition on His-captured human CD200R1a; row = 1st Ab (400 nM); competitor (2nd Ab) PR007973
Experimental: To determine if the anti-CD200R1 antibodies bind to human CD200R1a on different or approximate binding epitopes, epitope competition experiments for the anti-CD200R1 antibodies were performed by the ForteBlio Octet® RED96e platform. […] The in-tandem competition assay format was applied, and it contained two association steps. Firstly, the antigen-loaded biosensors bound to each antibody (i.e., First antibody, 1st Ab) at a saturating concentration of 400 nM for 300 seconds to reach equilibrium and then secondly bound to the competing antibodies (i.e., Second antibody, 2nd Ab) of 400 nM for 300 seconds. The second binding signals are recorded as the 100% signal of each antibody when the first antibodies are replaced by kinetic buffer. All the binding data were analyzed using ForteBlio Data Analysis 11.0 software. The inhibition rate was calculated by the following formula: […]

First: B5
Second: B6
The “Inhibition ratio (%)” value of the first is higher: 103% for the first, 95.6% for the second.

With B7 the “Inhibition ratio (%)” value was 99.6%.
